How the values were obtained:
Test in all cases: SPOT array
[1] = molecular target: T1, Boi1 SH3 (BOI1_YEAST), P38041
T1 chain: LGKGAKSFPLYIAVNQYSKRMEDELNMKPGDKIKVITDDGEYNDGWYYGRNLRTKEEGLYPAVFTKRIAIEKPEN

[2] = molecular target: T2, Boi2 SH3 (BOI2_YEAST), P39969
T2 chain: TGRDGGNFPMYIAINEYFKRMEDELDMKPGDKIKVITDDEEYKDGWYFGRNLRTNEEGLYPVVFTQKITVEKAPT

[3] = molecular target: T3, Rvs167 SH3 (RV167_YEAST), P39743
T3 chain: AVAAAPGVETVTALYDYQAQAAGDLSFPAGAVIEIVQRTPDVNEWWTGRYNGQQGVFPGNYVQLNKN

[4] = molecular target: T4, Yfr024 SH3 (LSB3_YEAST), P43603
T4 chain: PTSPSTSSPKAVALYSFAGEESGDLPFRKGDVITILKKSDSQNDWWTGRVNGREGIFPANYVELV

[5] = molecular target: T5, Yhr016c SH3 (YSC84_YEAST), P32793
T5 chain: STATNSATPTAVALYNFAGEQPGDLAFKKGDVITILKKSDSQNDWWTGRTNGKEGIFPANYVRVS

## DERPFRPKRTSRSA [YGL165C 149-162]
[1]
  normalised SPOT signal, Boehringer light units (BLU); mean over the file's lines of this peptide: 632
[2]
  normalised SPOT signal, Boehringer light units (BLU); mean over the file's lines of this peptide: 169
[3]
  normalised SPOT signal, Boehringer light units (BLU); mean over the file's lines of this peptide: 111
[4]
  normalised SPOT signal, Boehringer light units (BLU); mean over the file's lines of this peptide: 7440
[5]
  normalised SPOT signal, Boehringer light units (BLU); mean over the file's lines of this peptide: 992

## DESPIDPSKAPKVP [YGR130C 350-363]
[1]
  normalised SPOT signal, Boehringer light units (BLU); mean over the file's lines of this peptide: 110
[2]
  normalised SPOT signal, Boehringer light units (BLU); mean over the file's lines of this peptide: 11.7
[3]
  normalised SPOT signal, Boehringer light units (BLU); mean over the file's lines of this peptide: 0
[4]
  normalised SPOT signal, Boehringer light units (BLU); mean over the file's lines of this peptide: 0
[5]
  normalised SPOT signal, Boehringer light units (BLU); mean over the file's lines of this peptide: 120

## DETPFFPDKIQKSF [YPR060C 81-94]
[1]
  normalised SPOT signal, Boehringer light units (BLU); mean over the file's lines of this peptide: 37.6
[2]
  normalised SPOT signal, Boehringer light units (BLU); mean over the file's lines of this peptide: 16.5
[3]
  normalised SPOT signal, Boehringer light units (BLU); mean over the file's lines of this peptide: 23.6
[4]
  normalised SPOT signal, Boehringer light units (BLU); mean over the file's lines of this peptide: 164
[5]
  normalised SPOT signal, Boehringer light units (BLU); mean over the file's lines of this peptide: 0

## DFRPRMPKRQRIPP [YMR125W 18-31]
[1]
  normalised SPOT signal, Boehringer light units (BLU); mean over the file's lines of this peptide: 776
[2]
  normalised SPOT signal, Boehringer light units (BLU); mean over the file's lines of this peptide: 96.7
[3]
  normalised SPOT signal, Boehringer light units (BLU); mean over the file's lines of this peptide: 87.3
[4]
  normalised SPOT signal, Boehringer light units (BLU); mean over the file's lines of this peptide: 835
[5]
  normalised SPOT signal, Boehringer light units (BLU); mean over the file's lines of this peptide: 211

## DFTPVEPSKMREYI [YBR202W 629-642]
[1]
  normalised SPOT signal, Boehringer light units (BLU); mean over the file's lines of this peptide: 64.2
[2]
  normalised SPOT signal, Boehringer light units (BLU); mean over the file's lines of this peptide: 59.7
[3]
  normalised SPOT signal, Boehringer light units (BLU); mean over the file's lines of this peptide: 277
[4]
  normalised SPOT signal, Boehringer light units (BLU); mean over the file's lines of this peptide: 15.3
[5]
  normalised SPOT signal, Boehringer light units (BLU); mean over the file's lines of this peptide: 179

## DGRPHSPLRARSAT [YFL007W 51-64]
[1]
  normalised SPOT signal, Boehringer light units (BLU); mean over the file's lines of this peptide: 1690
[2]
  normalised SPOT signal, Boehringer light units (BLU); mean over the file's lines of this peptide: 21.9
[3]
  normalised SPOT signal, Boehringer light units (BLU); mean over the file's lines of this peptide: 75.7
[4]
  normalised SPOT signal, Boehringer light units (BLU); mean over the file's lines of this peptide: 1500
[5]
  normalised SPOT signal, Boehringer light units (BLU); mean over the file's lines of this peptide: 193

## DHKPENPIRTFKDL [YBL042C 90-103]
[1]
  normalised SPOT signal, Boehringer light units (BLU); mean over the file's lines of this peptide: 167
[2]
  normalised SPOT signal, Boehringer light units (BLU); mean over the file's lines of this peptide: 122
[3]
  normalised SPOT signal, Boehringer light units (BLU); mean over the file's lines of this peptide: 120
[4]
  normalised SPOT signal, Boehringer light units (BLU); mean over the file's lines of this peptide: 238
[5]
  normalised SPOT signal, Boehringer light units (BLU); mean over the file's lines of this peptide: 175

## DIHPSLPVRTRFAP [YOL033W 38-51]
[1]
  normalised SPOT signal, Boehringer light units (BLU); mean over the file's lines of this peptide: 6780
[2]
  normalised SPOT signal, Boehringer light units (BLU); mean over the file's lines of this peptide: 30.2
[3]
  normalised SPOT signal, Boehringer light units (BLU); mean over the file's lines of this peptide: 943
[4]
  normalised SPOT signal, Boehringer light units (BLU); mean over the file's lines of this peptide: 24600
[5]
  normalised SPOT signal, Boehringer light units (BLU); mean over the file's lines of this peptide: 5090

## DKLPEGPVKSLEGA [YNL134C 130-143]
[1]
  normalised SPOT signal, Boehringer light units (BLU); mean over the file's lines of this peptide: 35.5
[2]
  normalised SPOT signal, Boehringer light units (BLU); mean over the file's lines of this peptide: 73.3
[3]
  normalised SPOT signal, Boehringer light units (BLU); mean over the file's lines of this peptide: 55.7
[4]
  normalised SPOT signal, Boehringer light units (BLU); mean over the file's lines of this peptide: 87.8
[5]
  normalised SPOT signal, Boehringer light units (BLU); mean over the file's lines of this peptide: 89.5

## DKLPFSPIKEKKLK [YOR335C 774-787]
[1]
  normalised SPOT signal, Boehringer light units (BLU); mean over the file's lines of this peptide: 466
[2]
  normalised SPOT signal, Boehringer light units (BLU); mean over the file's lines of this peptide: 39.8
[3]
  normalised SPOT signal, Boehringer light units (BLU); mean over the file's lines of this peptide: 118
[4]
  normalised SPOT signal, Boehringer light units (BLU); mean over the file's lines of this peptide: 64.1
[5]
  normalised SPOT signal, Boehringer light units (BLU); mean over the file's lines of this peptide: 156

## DLAPKWPKKTVSNE [YPL175W 432-445]
[1]
  normalised SPOT signal, Boehringer light units (BLU); mean over the file's lines of this peptide: 48.2
[2]
  normalised SPOT signal, Boehringer light units (BLU); mean over the file's lines of this peptide: 14.6
[3]
  normalised SPOT signal, Boehringer light units (BLU); mean over the file's lines of this peptide: 7.2
[4]
  normalised SPOT signal, Boehringer light units (BLU); mean over the file's lines of this peptide: 1590
[5]
  normalised SPOT signal, Boehringer light units (BLU); mean over the file's lines of this peptide: 110
